# Results reported in IntAct's records for PubMed 29880681.
# B1: LIM domain and actin-binding protein 1 (Mus musculus), Q9ERG0-1 (parent)
# chain: MESTPFNRRQWTSLSLRVTAKELSLVNKNKSSAIVEIFSKYQKAAEEANMERKKNNPESLPQHFRRGTLSVLKKKWENPVAGAEFHTDSLPNSSSEGGHTADYPPAEVTDKPAPGVRADREEHTQPKPRFGSRPEAVIQSRYPRSENSHDFKAQATESQKMENCLGDSRHEAEKPETSENTETSGKIEKYNVPLNRLKMMFEKGEHNQTKSLWTQSRNAGGRRLSENNCSLDDWEIGAGHLSSSAFNSEKNESKRNLELPRLSETSIKDRMAKYQAAVSKQSSPASYTNELKTSESKTHKWEQKENVPPGPEACSVHQEGSKVSTTENSLVALSVPAEDDTCNSQVKSEAQQPMHPKPLSPDARTSSLPESSPSKTAKKFQAPAKESCVECQKTVYPMERLLANQQVFHISCFRCSYCNNKLSLGTYASLHGRIYCKPHFNQLFKSKGNYDEGFGHKQHKDLWASKSDNEETLGRPAQPPNAGESPHSPGVEDAPIAKVGVLAASMEAKASSQREREDKPAETKKLRIAWPPPAELGGSGSALEEGIKVSKPKWPPEDDVCKTEAPEDVDLDLKKLRRSSSLKERSRPFTVAASFRTSSIKSPKASSPSLRKGWSESEQSEEFGGGIATMERKQTENARPSGEKENVGKSRWQGEEVPRSKDRSSFELESENFMENGANIAEDDNHVHAQQSPLEPEAPGWSGFVDTTAAKEFTTQNQKSQDVGFWEGEVVRELSVEEQIKRNRYYDEDEDEE
# partner: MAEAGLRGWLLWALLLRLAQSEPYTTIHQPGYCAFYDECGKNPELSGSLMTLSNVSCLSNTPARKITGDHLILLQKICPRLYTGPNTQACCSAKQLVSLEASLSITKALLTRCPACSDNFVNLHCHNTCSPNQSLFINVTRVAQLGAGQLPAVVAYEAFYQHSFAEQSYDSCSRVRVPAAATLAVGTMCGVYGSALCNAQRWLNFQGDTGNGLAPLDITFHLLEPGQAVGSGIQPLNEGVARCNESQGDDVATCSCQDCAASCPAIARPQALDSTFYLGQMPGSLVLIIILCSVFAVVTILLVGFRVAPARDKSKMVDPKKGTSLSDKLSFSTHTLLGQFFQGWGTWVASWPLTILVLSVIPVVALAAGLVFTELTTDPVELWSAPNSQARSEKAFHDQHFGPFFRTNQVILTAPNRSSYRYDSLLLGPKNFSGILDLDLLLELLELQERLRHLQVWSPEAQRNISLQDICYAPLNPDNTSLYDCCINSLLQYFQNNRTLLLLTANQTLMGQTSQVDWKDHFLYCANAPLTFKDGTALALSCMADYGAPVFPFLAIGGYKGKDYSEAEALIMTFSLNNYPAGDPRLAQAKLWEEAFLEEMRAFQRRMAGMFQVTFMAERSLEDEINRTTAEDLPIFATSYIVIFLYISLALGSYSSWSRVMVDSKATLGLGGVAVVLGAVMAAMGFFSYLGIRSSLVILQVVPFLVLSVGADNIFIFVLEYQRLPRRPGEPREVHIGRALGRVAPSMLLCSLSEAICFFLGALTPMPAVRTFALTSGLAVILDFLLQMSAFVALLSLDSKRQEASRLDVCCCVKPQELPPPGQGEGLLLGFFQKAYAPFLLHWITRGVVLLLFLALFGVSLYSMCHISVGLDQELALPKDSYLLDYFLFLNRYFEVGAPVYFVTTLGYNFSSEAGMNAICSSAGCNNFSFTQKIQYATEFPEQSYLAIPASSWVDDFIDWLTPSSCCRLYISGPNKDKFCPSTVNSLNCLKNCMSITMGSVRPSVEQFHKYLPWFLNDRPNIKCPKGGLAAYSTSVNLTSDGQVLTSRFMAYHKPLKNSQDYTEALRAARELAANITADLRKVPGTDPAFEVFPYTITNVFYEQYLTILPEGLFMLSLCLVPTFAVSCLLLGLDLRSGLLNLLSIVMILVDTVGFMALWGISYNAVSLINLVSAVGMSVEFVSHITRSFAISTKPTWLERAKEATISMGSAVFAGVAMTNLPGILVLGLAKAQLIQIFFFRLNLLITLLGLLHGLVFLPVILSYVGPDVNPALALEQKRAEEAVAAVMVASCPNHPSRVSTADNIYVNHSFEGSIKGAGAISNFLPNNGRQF
# B2: NPC1-like intracellular cholesterol transporter 1 (Homo sapiens), Q9UHC9-2 (parent)
# chain: B1 partner
# Variants of: B1
# Details: with NPC1L1, Q9UHC9-2
row,effect of a mutation on the interaction,Variant
1,disrupting interaction,C164A;L165A;G166A

# Variants of: B1
# Details: with NPC1L1, Q9UHC9-2
# Remark: another data set of the same source
row,effect of a mutation on the interaction,Variant
1,disrupting interaction strength,C164A;L165A;G166A

# Variants of: B2
# Details: with Lima1, Q9ERG0-1
row,effect of a mutation on the interaction,Variant
1,disrupting interaction,Q1277A;K1278A;R1279A
